The record followed here is paper PMC5641968 (2017).

Like-named read-outs stand apart in the source and are kept apart here.

Holding throughout (assay): biolayer interferometry
Test [1] addresses calmodulin (UniProt P0DP23).
In test [2] the target is calmodulin (UniProt P0DP23). The source holds these as a separate data set.
For test [3], the target named is calmodulin (UniProt P0DP23). The source holds these as a separate data set.

B1: eNOS (protein)
chain: GNLKSVGQEPGPPCGLGLGLGLGLCGKQGPASPAPEPSRAPAPATPHAPDHSPAPNSPTLTRPPEGPKFPRVKNWELGSITYDTLCAQSQQDGPCTPRCCLGSLVLPRKLQTRPSPGPPPAEQLLSQARDFINQYYSSIKRSGSQAHEERLQEVEAEVASTGTYHLRESELVFGAKQAWRNAPRCVGRIQWGKLQVFDARDCSSAQEMFTYICNHIKYATNRGNLRSAITVFPQRAPGRGDFRIWNSQLVRYAGYRQQDGSVRGDPANVEITELCIQHGWTPGNGRFDVLPLLLQAPDEAPELFVLPPELVLEVPLEHPTLEWFAALGLRWYALPAVSNMLLEIGGLEFSAAPFSGWYMSTEIGTRNLCDPHRYNILEDVAVCMDLDTRTTSSLWKDKAAVEINLAVLHSFQLAKVTIVDHHAATVSFMKHLDNEQKARGGCPADWAWIVPPISGSLTPVFHQEMVNYILSPAFRYQPDPWKGSATKGAGITRKKTFKEVANAVKISASLMGTLMAKRVKATILYASETGRAQSYAQQLGRLFRKAFDPRVLCMDEYDVVSLEHEALVLVVTSTFGNGDPPENGESFAAALMEMSGPYNSSPRPEQHKSYKIRFNSVSCSDPLVSSWRRKRKESSNTDSAGALGTLRFCVFGLGSRAYPHFCAFARAVDTRLEELGGERLLQLGQGDELCGQEEAFRGWAKAAFQASCETFCVGEEAKAAAQDIFSPKRSWKRQRYRLSTQAEGLQLLPGLIHVHRRKMFQATVLSVENLQSSKSTRATILVRLDTAGQEGLQYQPGDHIGICPPNRPGLVEALLSRVEDPPPPTESVAVEQLEKGSPGGPPPSWVRDPRLPPCTLRQALTFFLDITSPPSPRLLRLLSTLAEEPSEQQELETLSQDPRRYEEWKWFRCPTLLEVLEQFPSVALPAPLLLTQLPLLQPRYYSVSSAPNAHPGEVHLTVAVLAYRTQDGLGPLHYGVCSTWLSQLKTGDPVPCFIRGAPSFRLPPDPYVPCILVGPGTGIAPFRGFWQERLHDIESKGLQPAPMTLVFGCRCSQLDHLYRDEVQDAQERGVFGRVLTAFSREPDSPKTYVQDILRTELAAEVHRVLCLERGHMFVCGDVTMATSVLQTVQRILATEGDMELDEAGDVIGVLRDQQRYHEDIFGLTLRTQEVTSRIRTQSFSLQERHLRGAVPWAFDPPGPDTPGP
modifications: Ca2+
As usually defined, the Kd is the constant that tells how readily two partners part at equilibrium. For B1, the Kd with calmodulin [1] stood at 0.65 nM; in the test with calmodulin [2], 0.645 nM; in the test with calmodulin [3], 0.5 nM.
